The Kd is the equilibrium constant for the complex coming apart. A word on the koff: it is the rate constant with which the complex falls apart. Low readings indicate slow dissociation, high ones fast dissociation. Usually kon stands for a measure of how fast the partners come together. A lower kon goes with slow association.

We go through eleven molecules from patent publication EP1950300A2 (Genentech, Inc., dated 2008).

Experiment [1] deals with T1, VEGF(8-109) (UniProt P15692 214-315).
T1 construct: range 8-109; Covalently coupled to the BIACORE chip
T1 sequence (looked up): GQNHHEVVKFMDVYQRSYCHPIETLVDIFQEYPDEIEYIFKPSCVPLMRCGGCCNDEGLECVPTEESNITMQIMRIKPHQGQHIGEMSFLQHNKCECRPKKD
The experiment can be described thus: SPR (BIACORE-2000), ratio against Y0192. Background: In SPR one partner is held on a chip, and binding of the other changes the refractive index at the surface.

Experiment [2] addresses T1, VEGF(8-109). The experiment can be described thus: SPR (BIACORE-2000), Kd calculated as koff/kon.
The target in experiment [3] is T1, VEGF(8-109). The experiment can be described thus: SPR (BIACORE-2000), VEGF(8-109) coupled to the chip, Fab injected, 25 C.

B1: Y0241-6 (Fab, V domains shown)
VH: EVQLVESGGGLVQPGGSLRLSCAASGYDYTNYGMNWVRQAPGKGLEWVGWINTYTGEPTYAADFKRRFTFSLDTSKSTAYLQMNSLRAEDTAVYYCAKYPHYYGSSHWYFDVWGQGTL
VL: DIQLTQSPSSLSASVGDRVTITCRANEQLSNYLNWYQQKPGKAPKVLIYFTSSLHSGVPSRFSGSGSGTDFTLTISSLQPEDFATYYCQQYSTVPWTFGQGTKVEIKR
notes: Clone from library YC-86 built on pY0192, expressed as Fab
Regarding B1, the “Kd(wt)/Kd(mut)” value in the experiment with VEGF(8-109) [1] was determined as 1.1 fold. Further, the Kd in the experiment with VEGF(8-109) [2] is 2.7 nM. In the experiment with VEGF(8-109) [3], this molecule yielded an off-rate (koff) of 0.000129 s⁻¹ and a kon of 47000 M⁻¹ s⁻¹.

B2: Y0239-9 (Fab, V domains shown)
VH: EVQLVESGGGLVQPGGSLRLSCAASGYTFTNYGMNWVRQAPGKGLEWVGWINTYTGEPTYAADFKRRFTFSLDTSKSTAYLQMNSLRAEDTAVYYCAKYPHYYLGESSHWYFDVWGQGTL
VL: DIQLTQSPSSLSASVGDRVTITCRANEQLSNYLNWYQQKPGKAPKVLIYFTSSLHSGVPSRFSGSGSGTDFTLTISSLQPEDFATYYCQQYSTVPWTFGQGTKVEIKR
notes: Clone from library YC-95 on pY0192; Expressed as Fab; The limits of the flanking pieces are my reading
B2: the “Kd(wt)/Kd(mut)” value with VEGF(8-109) [1] came out at 6 fold.

B3: Y0239-8 (Fab, V domains shown)
VH: EVQLVESGGGLVQPGGSLRLSCAASGYTFTNYGMNWVRQAPGKGLEWVGWINTYTGEPTYAADFKRRFTFSLDTSKSTAYLQMNSLRAEDTAVYYCAKYPHYYLRDGRSSHWYFDVWGQGTL
VL: DIQLTQSPSSLSASVGDRVTITCRANEQLSNYLNWYQQKPGKAPKVLIYFTSSLHSGVPSRFSGSGSGTDFTLTISSLQPEDFATYYCQQYSTVPWTFGQGTKVEIKR
notes: Clone from library YC-95 (G104 replaced by a random peptide) on pY0192; Expressed as Fab; The limits of the flanking pieces are my reading
Regarding B3, the “Kd(wt)/Kd(mut)” value with VEGF(8-109) [1] was 5.8 fold.

B4: Y0239-19 (Fab, V domains shown)
VH: EVQLVESGGGLVQPGGSLRLSCAASGYTFTNYGMNWVRQAPGKGLEWVGWINTYTGEPTYAADFKRRFTFSLDTSKSTAYLQMNSLRAEDTAVYYCAKYPHYYVNERKSHWYFDVWGQGTL
VL: DIQLTQSPSSLSASVGDRVTITCRANEQLSNYLNWYQQKPGKAPKVLIYFTSSLHSGVPSRFSGSGSGTDFTLTISSLQPEDFATYYCQQYSTVPWTFGQGTKVEIKR
notes: Expressed as Fab; also called insertion variant Y0239-19; VNERK motif variant
As for B4, the “Kd(wt)/Kd(mut)” value in the experiment with VEGF(8-109) [1] worked out at 9.7 fold.

B5: Y0261-6 (Fab, V domains shown)
VH: EVQLVESGGGLVQPGGSLRLSCAASGYTFTNYGMNWVRQAPGKGLEWVGWINTYTGEPTYAADFKRRFTFSLDTSKSTAYLQMNSLRAEDTAVYYCAKYPHYYLKDKKSHWYFDVWGQGTL
VL: DIQLTQSPSSLSASVGDRVTITCRANEQLSNYLNWYQQKPGKAPKVLIYFTSSLHSGVPSRFSGSGSGTDFTLTISSLQPEDFATYYCQQYSTVPWTFGQGTKVEIKR
notes: Clone from library YC-98 on pY0192; Expressed as Fab; The limits of the flanking pieces are my reading
On to B5, for which the “Kd(wt)/Kd(mut)” value with VEGF(8-109) [1] was determined as 5 fold.

B6: Y0313-2 (Fab, V domains shown)
VH: EVQLVESGGGLVQPGGSLRLSCAASGYDFTHYGMNWVRQAPGKGLEWVGWINTYTGEPTYAADFKRRFTFSLDTSKSTAYLQMNSLRAEDTAVYYCAKYPHYYVNERKSHWYFDVWGQGTL
VL: DIQLTQSPSSLSASVGDRVTITCRANEQLSNYLNWYQQKPGKAPKVLIYFTSSLHSGVPSRFSGSGSGTDFTLTISSLQPEDFATYYCQQYSTVPWTFGQGTKVEIKR
notes: Combines the CDR H3 insertion of Y0239-19 with T28D/N31H; Prepared as Fab; also called CDR combination variant Y0313-2; Insert-Fab Y0313-2
On to B6, for which, in the experiment with VEGF(8-109) [1], the “Kd(wt)/Kd(mut)” value came to 8 fold.

B7: Y0239-2 (Fab, V domains shown)
VH: EVQLVESGGGLVQPGGSLRLSCAASGYTFTNYGMNWVRQAPGKGLEWVGWINTYTGEPTYAADFKRRFTFSLDTSKSTAYLQMNSLRAEDTAVYYCAKYPHYYKNDKSSHWYFDVWGQGTL
VL: DIQLTQSPSSLSASVGDRVTITCRANEQLSNYLNWYQQKPGKAPKVLIYFTSSLHSGVPSRFSGSGSGTDFTLTISSLQPEDFATYYCQQYSTVPWTFGQGTKVEIKR
notes: as for B2
On to B7, for which, in the experiment with VEGF(8-109) [1], the “Kd(wt)/Kd(mut)” value is 0.6 fold.

B8: Y0241-7 (Fab, V domains shown)
VH: EVQLVESGGGLVQPGGSLRLSCAASGYDWTNYGMNWVRQAPGKGLEWVGWINTYTGEPTYAADFKRRFTFSLDTSKSTAYLQMNSLRAEDTAVYYCAKYPHYYGSSHWYFDVWGQGTL
VL: DIQLTQSPSSLSASVGDRVTITCRANEQLSNYLNWYQQKPGKAPKVLIYFTSSLHSGVPSRFSGSGSGTDFTLTISSLQPEDFATYYCQQYSTVPWTFGQGTKVEIKR
notes: Clone from library YC-86 built on pY0192, expressed as Fab; This is not written as a substitution
With B8, the “Kd(wt)/Kd(mut)” value with VEGF(8-109) [1] is 1 fold. The Kd with VEGF(8-109) [2] is 3 nM. In the experiment with VEGF(8-109) [3], this molecule came in with a koff of 0.000128 s⁻¹ and a kon of 46000 M⁻¹ s⁻¹.

B9: Y0240-1 (Fab, V domains shown)
VH: EVQLVESGGGLVQPGGSLRLSCAASGYTFTNYGMNWVRQAPGKGLEWVGWINTYTGEPTYAADFKRRFTFSLDTSKSTAYLQMNSLRAEDTAVYYCAKYPHYYLTDHKSHWYFDVWGQGTL
VL: DIQLTQSPSSLSASVGDRVTITCRANEQLSNYLNWYQQKPGKAPKVLIYFTSSLHSGVPSRFSGSGSGTDFTLTISSLQPEDFATYYCQQYSTVPWTFGQGTKVEIKR
notes: Clone from library YC-98 (G104 and S105 replaced by a random peptide) on pY0192; Expressed as Fab; The limits of the flanking pieces are my reading
B9: the “Kd(wt)/Kd(mut)” value in the experiment with VEGF(8-109) [1] is 5.8 fold.

B10: Y0239-12 (Fab, V domains shown)
VH: EVQLVESGGGLVQPGGSLRLSCAASGYTFTNYGMNWVRQAPGKGLEWVGWINTYTGEPTYAADFKRRFTFSLDTSKSTAYLQMNSLRAEDTAVYYCAKYPHYYAHEKKSHWYFDVWGQGTL
VL: DIQLTQSPSSLSASVGDRVTITCRANEQLSNYLNWYQQKPGKAPKVLIYFTSSLHSGVPSRFSGSGSGTDFTLTISSLQPEDFATYYCQQYSTVPWTFGQGTKVEIKR
notes: as for B5
As for B10, the “Kd(wt)/Kd(mut)” value with VEGF(8-109) [1] came out at 4.8 fold.

B11: Y0242-1 (Fab, V domains shown)
VH: EVQLVESGGGLVQPGGSLRLSCAASGYTFTNYGMNWVRQAPGKGLEWVGWINTWTGEPTYAADFKRRFTFSLDTSKSTAYLQMNSLRAEDTAVYYCAKYPHYYGSSHWYFDVWGQGTL
VL: DIQLTQSPSSLSASVGDRVTITCRANEQLSNYLNWYQQKPGKAPKVLIYFTSSLHSGVPSRFSGSGSGTDFTLTISSLQPEDFATYYCQQYSTVPWTFGQGTKVEIKR
notes: Clone from library YC-90; Expressed as Fab
For the molecule B11, the “Kd(wt)/Kd(mut)” value in the experiment with VEGF(8-109) [1] was found to be 1.6 fold.
